Several values for one entry are separate records, joined by “and”; a condition that tells them apart may be missing. Identical values can stand only once.
B2: P2 (PIH1D2), His tag cleaved, co-purified with S1’ (natural protein)
chain: METSSKGLLTQVTQFWNLLDDLAQSDPEGYEKFIQQQLKEGKQLCAAPEPQLCLQTRILKPKEKILFINLCQWTRIPAPQSTTHPVPLTVGKPEDTTEISDAYTVIDVAYNPDVLHAAEKDQVKKNQLIQMAMKCIEEKFQFTLSHSYHITKFRIKGSIQRMKQNLMGIQTDSIDLREKMRRELTLGQIRSSTMSNPDHFPQLLLPKDQVSGKAVCLIEEISSTEIQVEMKMPAYELKIVHDHSEKPLKIELKVELPGINSVSLCDLSVSEDDLLIEVSEKYRLHLNLPKLIDTEMTTAKFIKEKSTLIITMPLV

Tests used:
[1] = target: R1^D302N R2^D299N complex, double active site mutant (no hydrolysis, ATP loaded) (human, UniProt Q9Y265;Q9Y230, D302N | D299N); assay: SPR
[2] = target: RUVBL2 (R2) as a chain of the reconstituted R2S’P sample (human, UniProt Q9Y230 1-463); assay: cross-linking
[3] = target: RUVBL1 (R1) as a chain of the reconstituted R2S’P sample (human, UniProt Q9Y265 1-456); assay: cross-linking
[4] = target: T1, R1R2 hetero-hexamer (pETDuet:His-R1R2-FH8), preparation for cryo-EM, native MS, mass photometry and XL-MS (human, UniProt Q9Y265;Q9Y230); assay: native MS
[5] = target: T1, R1R2 hetero-hexamer …; assay: mass photometry
[6] = target: B2; assay: cross-linking
[7] = target: T2, S1’’ (S1_(622-762)), extended version of S1_TPR3 (human, UniProt Q07617 622-762); assay: NMR
T2 sequence: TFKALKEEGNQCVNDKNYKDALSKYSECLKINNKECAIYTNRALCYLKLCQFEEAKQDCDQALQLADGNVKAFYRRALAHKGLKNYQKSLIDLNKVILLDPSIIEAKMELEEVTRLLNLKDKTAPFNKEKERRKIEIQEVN

[8] = target: R1R2 complex (6xHis-R1, 3xFLAG-R2), unlabeled, NMR interaction experiments (human, UniProt Q9Y265;Q9Y230); assay: NMR titration
R1R2 complex (6xHis-R1, 3xFLAG-R2), unlabeled, NMR interaction experiments, sequence (Q9Y265 whole entry, chain 1 of 2): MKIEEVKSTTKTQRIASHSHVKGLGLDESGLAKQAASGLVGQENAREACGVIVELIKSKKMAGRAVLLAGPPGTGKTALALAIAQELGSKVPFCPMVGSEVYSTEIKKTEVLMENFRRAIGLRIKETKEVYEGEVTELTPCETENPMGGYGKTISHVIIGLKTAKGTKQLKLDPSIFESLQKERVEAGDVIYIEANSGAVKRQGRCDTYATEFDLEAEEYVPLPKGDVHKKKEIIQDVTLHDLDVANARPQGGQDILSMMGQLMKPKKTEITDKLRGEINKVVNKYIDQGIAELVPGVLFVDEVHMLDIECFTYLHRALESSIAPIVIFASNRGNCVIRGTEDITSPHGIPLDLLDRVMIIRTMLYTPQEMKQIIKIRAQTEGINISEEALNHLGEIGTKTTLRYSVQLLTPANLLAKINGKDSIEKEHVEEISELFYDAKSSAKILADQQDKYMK
R1R2 complex (6xHis-R1, 3xFLAG-R2), unlabeled, NMR interaction experiments, sequence (Q9Y230 whole entry, chain 2 of 2): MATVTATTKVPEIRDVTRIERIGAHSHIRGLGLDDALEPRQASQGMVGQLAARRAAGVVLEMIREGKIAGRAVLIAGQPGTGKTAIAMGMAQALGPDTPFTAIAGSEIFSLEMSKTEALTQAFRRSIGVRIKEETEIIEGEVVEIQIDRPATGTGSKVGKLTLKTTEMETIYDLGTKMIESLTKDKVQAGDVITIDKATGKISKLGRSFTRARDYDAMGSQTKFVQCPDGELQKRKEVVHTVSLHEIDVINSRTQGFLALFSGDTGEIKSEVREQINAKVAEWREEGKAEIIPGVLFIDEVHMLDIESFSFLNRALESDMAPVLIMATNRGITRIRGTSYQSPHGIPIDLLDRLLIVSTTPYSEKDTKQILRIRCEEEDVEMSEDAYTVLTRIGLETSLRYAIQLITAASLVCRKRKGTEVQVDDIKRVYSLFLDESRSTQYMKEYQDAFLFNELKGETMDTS

T1 sequence (Q9Y265 whole entry, chain 1 of 2): as the sequence (Q9Y265 whole entry, chain 1 of 2) above
T1 sequence (Q9Y230 whole entry, chain 2 of 2): as the sequence (Q9Y230 whole entry, chain 2 of 2) above
RUVBL2 (R2) as a chain of the reconstituted R2S’P sample, sequence (Q9Y230 whole entry): as the sequence (Q9Y230 whole entry, chain 2 of 2) above
R1^D302N R2^D299N complex, double active site mutant (no hydrolysis, ATP loaded), sequence (Q9Y265 whole entry D302N, chain 1 of 2): as the sequence (Q9Y265 whole entry, chain 1 of 2) above, with D302N counted along it
R1^D302N R2^D299N complex, double active site mutant (no hydrolysis, ATP loaded), sequence (Q9Y230 whole entry D299N, chain 2 of 2): as the sequence (Q9Y230 whole entry, chain 2 of 2) above, with D299N counted along it
RUVBL1 (R1) as a chain of the reconstituted R2S’P sample, sequence (Q9Y265 whole entry): as the sequence (Q9Y265 whole entry, chain 1 of 2) above

B1: S1’P2 heterodimer, SPR preparation (complex)
chain 1: TFKALKEEGNQCVNDKNYKDALSKYSECLKINNKECAIYTNRALCYLKLCQFEEAKQDCDQALQLADGNVKAFYRRALAHKGLKNYQKSLIDLNKVILLDPSIIEAKMELEEVTRLLNLKDKTAPFNKEKERRKIEIQEVNEGKEEPGRPAGEVSMGCLASEKGGKSSRSPEDPEKLPIAKPNNAYEFGQIINALSTRKDKEACAHLLAITAPKDLPMFLSNKLEGDTFLLLIQSLKNNLIEKDPSLVYQHLLYLSKAERFKMMLTLISKGQKELIEQLFEDLSDTPNNHFTLEDIQALKRQYEL
chain 2: METSSKGLLTQVTQFWNLLDDLAQSDPEGYEKFIQQQLKEGKQLCAAPEPQLCLQTRILKPKEKILFINLCQWTRIPAPQSTTHPVPLTVGKPEDTTEISDAYTVIDVAYNPDVLHAAEKDQVKKNQLIQMAMKCIEEKFQFTLSHSYHITKFRIKGSIQRMKQNLMGIQTDSIDLREKMRRELTLGQIRSSTMSNPDHFPQLLLPKDQVSGKAVCLIEEISSTEIQVEMKMPAYELKIVHDHSEKPLKIELKVELPGINSVSLCDLSVSEDDLLIEVSEKYRLHLNLPKLIDTEMTTAKFIKEKSTLIITMPLV
B1: binds [1].

B2: binds [2]; binds [3].

B3: S1’P2 heterodimer, preparation for cryo-EM, native MS, mass photometry and XL-MS (complex)
chain 1: TFKALKEEGNQCVNDKNYKDALSKYSECLKINNKECAIYTNRALCYLKLCQFEEAKQDCDQALQLADGNVKAFYRRALAHKGLKNYQKSLIDLNKVILLDPSIIEAKMELEEVTRLLNLKDKTAPFNKEKERRKIEIQEVNEGKEEPGRPAGEVSMGCLASEKGGKSSRSPEDPEKLPIAKPNNAYEFGQIINALSTRKDKEACAHLLAITAPKDLPMFLSNKLEGDTFLLLIQSLKNNLIEKDPSLVYQHLLYLSKAERFKMMLTLISKGQKELIEQLFEDLSDTPNNHFTLEDIQALKRQYEL
chain 2: METSSKGLLTQVTQFWNLLDDLAQSDPEGYEKFIQQQLKEGKQLCAAPEPQLCLQTRILKPKEKILFINLCQWTRIPAPQSTTHPVPLTVGKPEDTTEISDAYTVIDVAYNPDVLHAAEKDQVKKNQLIQMAMKCIEEKFQFTLSHSYHITKFRIKGSIQRMKQNLMGIQTDSIDLREKMRRELTLGQIRSSTMSNPDHFPQLLLPKDQVSGKAVCLIEEISSTEIQVEMKMPAYELKIVHDHSEKPLKIELKVELPGINSVSLCDLSVSEDDLLIEVSEKYRLHLNLPKLIDTEMTTAKFIKEKSTLIITMPLV
For B3, the “stoichiometry N” value [4] was 1 S’P2 per R1R2 hexamer and 2 S’P2 per R1R2 hexamer and the “stoichiometry N” value [5] was 1 S1’P2 per R1R2 hexamer and 2 S1’P2 per R1R2 hexamer and 1 S1’P2 per R1R2 dodecamer and 2 S1’P2 per R1R2 dodecamer.

B4: S1’ (SPAG1 622-926), untagged, co-expressed with His-P2 (domain or fragment)
chain: TFKALKEEGNQCVNDKNYKDALSKYSECLKINNKECAIYTNRALCYLKLCQFEEAKQDCDQALQLADGNVKAFYRRALAHKGLKNYQKSLIDLNKVILLDPSIIEAKMELEEVTRLLNLKDKTAPFNKEKERRKIEIQEVNEGKEEPGRPAGEVSMGCLASEKGGKSSRSPEDPEKLPIAKPNNAYEFGQIINALSTRKDKEACAHLLAITAPKDLPMFLSNKLEGDTFLLLIQSLKNNLIEKDPSLVYQHLLYLSKAERFKMMLTLISKGQKELIEQLFEDLSDTPNNHFTLEDIQALKRQYEL
B4: binds [2]; binds [6].

B5: S1’P2_(231-315) heterodimer, SPR preparation (complex)
chain 1: TFKALKEEGNQCVNDKNYKDALSKYSECLKINNKECAIYTNRALCYLKLCQFEEAKQDCDQALQLADGNVKAFYRRALAHKGLKNYQKSLIDLNKVILLDPSIIEAKMELEEVTRLLNLKDKTAPFNKEKERRKIEIQEVNEGKEEPGRPAGEVSMGCLASEKGGKSSRSPEDPEKLPIAKPNNAYEFGQIINALSTRKDKEACAHLLAITAPKDLPMFLSNKLEGDTFLLLIQSLKNNLIEKDPSLVYQHLLYLSKAERFKMMLTLISKGQKELIEQLFEDLSDTPNNHFTLEDIQALKRQYEL
chain 2: KMPAYELKIVHDHSEKPLKIELKVELPGINSVSLCDLSVSEDDLLIEVSEKYRLHLNLPKLIDTEMTTAKFIKEKSTLIITMPLV
B5: binds [1].

B6: P2_CS domain (P2_(231-315)) (domain or fragment)
chain: KMPAYELKIVHDHSEKPLKIELKVELPGINSVSLCDLSVSEDDLLIEVSEKYRLHLNLPKLIDTEMTTAKFIKEKSTLIITMPLV
B6: binds [7].

B7: S1_C (SPAG1 796-926), isotope-labelled NMR sample (domain or fragment)
chain: EKLPIAKPNNAYEFGQIINALSTRKDKEACAHLLAITAPKDLPMFLSNKLEGDTFLLLIQSLKNNLIEKDPSLVYQHLLYLSKAERFKMMLTLISKGQKELIEQLFEDLSDTPNNHFTLEDIQALKRQYEL
B7: binds [8].
